Substrate in the data set: C[C@@](O)(CCO)CC(=O)O
In words: purified protein. The note with it: pH 8.5; 55.0 °C.

B1: Ta1305 (mevalonate-3-kinase) (Thermoplasma acidophilum DSM 1728) (protein)
chain: MTYRSIGSTAYPTIGVVLLGGIANPVTRTPLHTSAGIAYSDSCGSIRSETRIYADEATHIYFNGTESTDDNRSVRRVLDRYSSVFEEAFGTKTVSYSSQNFGILSGSSDAGAASIGAAILGLKPDLDPHDVENDLRAVSESAGRSLFGGLTITWSDGFHAYTEKILDPEAFSGYSIVAFAFDYQRNPSDVIHQNIVRSDLYPARKKHADEHAHMIKEYAKTNDIKGIFDLAQEDTEEYHSILRGVGVNVIRENMQKLISYLKLIRKDYWNAYIVTGGSNVYVAVESENADRLFSIENTFGSKKKMLRIVGGAWHRRPE
Take B1: the Km – broadly, the concentration of substrate that gives half-maximal velocity – was determined as 97 ± 6 µM.

For the origin of these results see article PMC4081127.
